Reference: US20250019402A1 (MEDIZINISCHE UNIVERSITAT INNSBRUCK, published 2025)
[ ]: non-standard residue; d: D form. The star is where a group is joined. DOTA = O=C(O)CN1CCN(CC(=O)O)CCN(CC(=O)*)CCN(CC(=O)O)CC1; 1Nal = N[C@@H](Cc1cccc2ccccc12)C(=O)O; 2Nal = N[C@@H](Cc1ccc2ccccc2c1)C(=O)O; NMeF = CN[C@@H](Cc1ccccc1)C(=O)O; NMeNle = CCCC[C@H](NC)C(=O)O; HYNIC = NNc1ccc(C(=O)*)cn1

T1: human cholecystokinin-2 receptor (CCK2R) (human, UniProt P32239 1-447)
T1 sequence (looked up): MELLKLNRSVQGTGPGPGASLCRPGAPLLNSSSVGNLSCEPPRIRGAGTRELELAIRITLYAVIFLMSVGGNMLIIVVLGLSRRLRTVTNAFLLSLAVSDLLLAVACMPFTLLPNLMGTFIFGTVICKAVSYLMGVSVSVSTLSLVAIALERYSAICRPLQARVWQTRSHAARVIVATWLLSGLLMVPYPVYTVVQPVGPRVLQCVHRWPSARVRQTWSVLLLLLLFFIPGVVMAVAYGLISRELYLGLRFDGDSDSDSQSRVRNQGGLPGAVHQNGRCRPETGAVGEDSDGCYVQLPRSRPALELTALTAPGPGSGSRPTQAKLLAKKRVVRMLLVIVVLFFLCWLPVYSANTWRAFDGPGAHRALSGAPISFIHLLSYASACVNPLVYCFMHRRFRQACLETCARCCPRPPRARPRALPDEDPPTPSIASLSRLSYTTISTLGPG

B1: DOTA-MGS10 (DOTA-DGlu-Tyr-Pro-Gly-Trp-(N-Me)Nle-Asp-1Nal-NH2) (peptide)
peptide: {DOTA}-[dE]YPGW[NMeNle]D[1Nal]-NH2
SMILES: CCCC[C@@H](C(=O)N[C@@H](CC(=O)O)C(=O)N[C@@H](Cc1cccc2ccccc12)C(N)=O)N(C)C(=O)[C@H](Cc1c[nH]c2ccccc12)NC(=O)CNC(=O)[C@@H]1CCCN1C(=O)[C@H](Cc1ccc(O)cc1)NC(=O)[C@@H](CCC(=O)O)NC(=O)CN1CCN(CC(=O)O)CCN(CC(=O)O)CCN(CC(=O)O)CC1
B2: DOTA-MGS4 (DOTA-DGlu-Ala-Tyr-Gly-Trp-(N-Me)Nle-Asp-(N-Me)Phe-NH2) (peptide)
peptide: {DOTA}-[dE]AYGW[NMeNle]D[NMeF]-NH2
SMILES: CCCC[C@@H](C(=O)N[C@@H](CC(=O)O)C(=O)N(C)[C@@H](Cc1ccccc1)C(N)=O)N(C)C(=O)[C@H](Cc1c[nH]c2ccccc12)NC(=O)CNC(=O)[C@H](Cc1ccc(O)cc1)NC(=O)[C@H](C)NC(=O)[C@@H](CCC(=O)O)NC(=O)CN1CCN(CC(=O)O)CCN(CC(=O)O)CCN(CC(=O)O)CC1
B3: DOTA-MGS8 (DOTA-DGlu-Pro-Tyr-Gly-Trp-(N-Me)Nle-Asp-1Nal-NH2) (peptide)
peptide: {DOTA}-[dE]PYGW[NMeNle]D[1Nal]-NH2
SMILES: CCCC[C@@H](C(=O)N[C@@H](CC(=O)O)C(=O)N[C@@H](Cc1cccc2ccccc12)C(N)=O)N(C)C(=O)[C@H](Cc1c[nH]c2ccccc12)NC(=O)CNC(=O)[C@H](Cc1ccc(O)cc1)NC(=O)[C@@H]1CCCN1C(=O)[C@@H](CCC(=O)O)NC(=O)CN1CCN(CC(=O)O)CCN(CC(=O)O)CCN(CC(=O)O)CC1
B4: DOTA-MGS9 (DOTA-DLys-Ala-Tyr-Gly-Trp-(N-Me)Nle-Asp-1Nal-NH2) (peptide)
peptide: {DOTA}-[dK]AYGW[NMeNle]D[1Nal]-NH2
SMILES: CCCC[C@@H](C(=O)N[C@@H](CC(=O)O)C(=O)N[C@@H](Cc1cccc2ccccc12)C(N)=O)N(C)C(=O)[C@H](Cc1c[nH]c2ccccc12)NC(=O)CNC(=O)[C@H](Cc1ccc(O)cc1)NC(=O)[C@H](C)NC(=O)[C@@H](CCCCN)NC(=O)CN1CCN(CC(=O)O)CCN(CC(=O)O)CCN(CC(=O)O)CC1
B5: DOTA-MGS5-2 (DOTA-DGlu-Ala-Tyr-Gly-Trp-(N-Me)Nle-Asp-2Nal-NH2) (peptide)
peptide: {DOTA}-[dE]AYGW[NMeNle]D[2Nal]-NH2
SMILES: CCCC[C@@H](C(=O)N[C@@H](CC(=O)O)C(=O)N[C@@H](Cc1ccc2ccccc2c1)C(N)=O)N(C)C(=O)[C@H](Cc1c[nH]c2ccccc12)NC(=O)CNC(=O)[C@H](Cc1ccc(O)cc1)NC(=O)[C@H](C)NC(=O)[C@@H](CCC(=O)O)NC(=O)CN1CCN(CC(=O)O)CCN(CC(=O)O)CCN(CC(=O)O)CC1

What follows are molecules tested against T1, human cholecystokinin-2 receptor (CCK2R) (assay: cell-based or functional assay).

cellular internalization after 2 h incubation on A431-CCK2R cells (% of total activity) [%]	cell uptake after 2 h incubation on A431-CCK2R cells (% of total activity) [%]	Molecule
29	–	^111In-DOTA-MG11 (peptide)
< 24	–	{DOTA}-[dE][dE][dE][dE][dE][dE]AYGWMDF-NH2 (also: DOTA coordinating 111In) [^111In-PP-F11]
–	37	{DOTA}-[dK]AYGW[NMeNle]D[1Nal]-NH2 (also: DOTA coordinating 111In) [^111In-DOTA-MGS9]
~40	–	{DOTA}-[dE]AYPW[NMeNle]D[1Nal]-NH2 (also: DOTA coordinating 68Ga) [^68Ga-DOTA-MGS12]
–	< 30	{DOTA}-[dE][dE][dE][dE][dE][dE]AYGWMDF-NH2 (also: DOTA coordinating 177Lu) [^177Lu-PP-F11]
–	54	{DOTA}-[dE]AYGW[NMeNle]D[1Nal]-NH2 (also: DOTA coordinating 68Ga) [^68Ga-DOTA-MGS5]
–	63	{DOTA}-[dE]AYGW[NMeNle]D[1Nal]-NH2 (also: DOTA coordinating 177Lu) [^177Lu-DOTA-MGS5]
–	68	{DOTA}-[dE]AYGW[NMeNle]D[1Nal]-NH2 (also: DOTA coordinating 111In) [^111In-DOTA-MGS5]
–	45	{DOTA}-[dE]AYGW[NMeNle]D[2Nal]-NH2 (also: DOTA coordinating 111In) [^111In-DOTA-MGS5-2]
–	63	{HYNIC}-[dE]AYGW[NMeNle]D[1Nal]-NH2 (also: HYNIC coordinating 99mTc, co-ligand not given here) [^99mTc-HYNIC-MGS5]
> 50	–	{DOTA}-[dE]YPGW[NMeNle]D[1Nal]-NH2 (also: DOTA coordinating 177Lu) [^177Lu-DOTA-MGS10]

These molecules were tested against T1, human cholecystokinin-2 receptor (CCK2R) (assay: displacement of [125I]Tyr12-gastrin-I on A431-CCK2R cells, filter plates, 1 h RT).
Protocol: Affinity for CCK2R was studied in A431 human epidermoid carcinoma cells stably transfected with the plasmid pCR3.1 containing the full coding sequence for the human CCK2R (A431-CCK2R) kindly provided by Dr. Luigi Aloj (Aloj L et al., J Nucl Med 2004, 45:485-494). […] Binding assays were carried out in 96-well filter plates (MultiScreenHTS-FB, Merck Group, Darmstadt, Germany) pretreated with 10 mM TRIS/139 mM NaCl PH 7.4 (2×250 μl). For the assay a number of 200,000-400,000 A431-CCK2R cells per well was prepared in 35mM HEPES buffer pH 7.4 containing 10 mM MgCl₂, 14 μM bacitracin and 0.5% BSA (a hypotonic solution disturbing the integrity of the cell membranes). […] Incubation was interrupted by filtration of the medium and rapid rinsing with ice-cold 10 mM TRIS/139 mM NaCl PH 7.4 (2×200 μl) and the filters were counted in the gamma-counter. Half maximal inhibitory concentration (IC50) values were calculated following nonlinear regression with Origin software (Microcal Origin 6.1, Northampton, MA) and a representative assay was chosen for comparison.

IC50 [nM]	Molecule
0.9	B1
1.2	B2
1.6	B3
1.8	B4
1.9	{DOTA}-[dE]AYGWMD[1Nal]-NH2 [DOTA-MGS1 (DOTA-DGlu-Ala-Tyr-Gly-Trp-Met-Asp-1Nal-NH2)]
1.6	B5
6	{HYNIC}-[dE]AYGW[NMeNle]D[1Nal]-NH2 [HYNIC-MGS5 (HYNIC-DGlu-Ala-Tyr-Gly-Trp-(N-Me)Nle-Asp-1Nal-NH2)]

The molecules below were run against human cholecystokinin-2 receptor (CCK2R) (human) (UniProt P32239) in the same assay as above.

IC50 [nM]	Molecule
0.9	DOTA-MG11 ([1,4,7,10-tetraazacyclodocecan-1,4,7,10-tetraacetic acid^0, D-Glu^1, DesGlu^2-6] minigastrin) (peptide)

What follows are molecules tested against serum proteins (fresh human serum) (human) (assay: incubation in fresh human serum at 37 C (500 pmol/mL), Sephadex G-50 size-exclusion chromatography, gamma counting).

Percentage of radioligand bound to serum proteins after 4 h incubation [%]	Percentage of radioligand bound to serum proteins after 24 h incubation [%]	Molecule
56.7	53.4	{DOTA}-[dE]YPGW[NMeNle]D[1Nal]-NH2 (also: DOTA coordinates 111In) [^111In-DOTA-MGS10]
26.6	27.8	{DOTA}-[dK]AYGW[NMeNle]D[1Nal]-NH2 (also: DOTA coordinating 111In) [^111In-DOTA-MGS9]
20	28.8	{DOTA}-[dE]AYGWMD[1Nal]-NH2 (also: DOTA coordinates 111In) [^111In-DOTA-MGS1 (^111In-DOTA-DGlu-Ala-Tyr-Gly-Trp-Met-Asp-1Nal-NH2)]
41	44.3	{DOTA}-[dE]AYGW[NMeNle]D[1Nal]-NH2 (also: DOTA coordinating 111In) [^111In-DOTA-MGS5]
31.7	34.6	{DOTA}-[dE]AYGW[NMeNle]D[2Nal]-NH2 (also: DOTA coordinating 111In) [^111In-DOTA-MGS5-2]
8.9	11.9	{DOTA}-[dE]AYGW[NMeNle]D[NMeF]-NH2 (also: DOTA coordinates 111In) [^111In-DOTA-MGS4 (^111In-DOTA-DGlu-Ala-Tyr-Gly-Trp-(N-Me)Nle-Asp-(N-Me)Phe-NH2)]
41.2	45.9	{DOTA}-[dE]AYPW[NMeNle]D[1Nal]-NH2 (also: DOTA coordinates 111In) [^111In-DOTA-MGS12]
44.5	52.8	{DOTA}-[dE]PYGW[NMeNle]D[1Nal]-NH2 (also: DOTA coordinates 111In) [^111In-DOTA-MGS8]
